# Type: physicochemical
# Details: for MMAD / released dosage at the mouthpiece as share of the nominal value / released dosage: 0.1 mg/ml in physiological saline; for released dosage: at the mouthpiece; for time of aerosol release: corresponds to 30 strokes/breaths
# Protocol: Aviptadil can be obtained, e.g., from Bachem AG, Bubendorf, Switzerland, in GMP quality.
# The experimental procedure was carried out pursuant to Ph. Eur. 2.9.44 (Preparations for Nebulisation: Characterisation). A cascade impactor (Next Generation Impactor (NGI), Copley Scientific Ltd., Nottingham, UK) was used to determine the respective percentage for each fraction of the nebulized particles.
# The thus generated aerosol was delivered to the cascade impactor by means of a mouthpiece (SK-211, NEBU-TEC, Eisenfeld, Germany).
# The nebulization chamber (yellow stamp, 250 μl liquid discharge) was filled. The puff profile configured at the breath simulator was chosen in such a way that a correct simulation of inhalation by means of the nebulizer was ensured. The corresponding time was recorded.
# Single values obtained for each cascade were added. […] MMAD, FPF and FPM were calculated from the obtained values: […]
Molecule,MMAD,released dosage at the mouthpiece as share of the nominal value,released dosage,time of aerosol release
"relaxin-3: human relaxin isoform, heterodimer of 51 amino acids, subunit 1 SEQ ID NO: 12 and subunit 2 SEQ ID NO: 13",3.36 μm,49%,0.049 mg,3 min
Ser-Pro-Lys-Met-Val-Gln-Gly-Ser-Gly-Cys-Phe-Gly-Arg-Lys-Met-Asp-Arg-Ile-Ser-Ser-Ser-Ser-Gly-Leu-Gly-Cys-Lys-Val-Leu-Arg-Arg-His [B-type natriuretic peptide],3.46 μm,69%,0.069 mg,3 min
Gly-Leu-Ser-Lys-Gly-Cys-Phe-Gly-Leu-Lys-Leu-Asp-Arg-Ile-Gly-Ser-Met-Ser-Gly-Leu-Gly-Cys [C-type natriuretic peptide],3.37 μm,77%,0.077 mg,3 min
Colistin [reference compound],3.61 μm,75%,0.075 mg,3 min
His-Ser-Asp-Gly-Ile-Phe-Thr-Asp-Ser-Tyr-Ser-Arg-Tyr-Arg-Lys-Gln-Met-Ala-Val-Lys-Lys-Tyr-Leu-Ala-Ala-Val-Leu-Gly-Lys-Arg-Tyr-Lys-Gln-Arg-Val-Lys-Asn-Lys [PACAP-38],3.25 μm,58%,0.058 mg,3 min
Tyr-Arg-Gln-Ser-Met-Asn-Asn-Phe-Gln-Gly-Leu-Arg-Ser-Phe-Gly-Cys-Arg-Phe-Gly-Thr-Cys-Thr-Val-Gln-Lys-Leu-Ala-His-Gln-Ile-Tyr-Gln-Phe-Thr-Asp-Lys-Asp-Lys-Asp-Asn-Val-Ala-Pro-Arg-Ser-Lys-Ile-Ser-Pro-Gln-Gly-Tyr [adrenomedullin],3.41 μm,53%,0.053 mg,3 min
Ac-Ser-Tyr-Ser-Met-Glu-His-Phe-Arg-Trp-Gly-Lys-Pro-Val-NH2 [α-melanocyte stimulating hormone],3.11 μm,45%,0.045 mg,3 min
"interferon gamma: human cytokine of 17 kD, 138 amino acids, SEQ ID NO: 14 (protein, listed as Homo sapiens) QDPYVKEAENLKKYFNAGHSDVADNGTLFLGILKNWKEESDRKIMQSQIVSFYFKLFKNFKDDQSIQKSVETIKEDMNVKFFNSNKKKRDDFEKLTNYSVTDLNVQRKAIHELIQVMAELSPAAKTGKRKRSQMLFRG",3.46 μm,95%,0.045 mg,3 min
"dornase alfa: recombinant human deoxyribonuclease I, polypeptide produced in CHO cells, comparative example (protein, UniProt P24855 23-282, looked up) Deoxyribonuclease-1: LKIAAFNIQTFGETKMSNATLVSYIVQILSRYDIALVQEVRDSHLTAVGKLLDNLNQDAPDTYHYVVSEPLGRNSYKERYLFVYRPDQVSAVDSYYYDDGCEPCGNDTFNREPAIVRFFSRFTEVREFAIVPLHAAPGDAVAEIDALYDVYLDVQEKWGLEDVMLMGDFNAGCSYVRPSQWSSIRLWTSPTFQWLIPDSADTTATPTHCAYDRIVVAGMLLRGAVVPDSALPFNFQAAYGLSDQLAQAISDHYPVEVMLK",3.72 μm,65%,0.065 mg,3 min

# Source: US20230103704A1, “HUMAN ANTI-IN[…] FOR THE […] OF IN[…] ISSUES” (priority 2020, published 2023)
